Laboratory results reported in patent US20090117169A1.

Columns and labels:
Experiment in all cases: cell-based or functional assay
[1] = biological target: Myc-tagged β-catenin
[2] = biological target: endogenous β-catenin in rat vascular smooth muscle cells (RASMCs, A7r5) (rat) (UniProt Q9WU82)
[3] = biological target: endogenous β-catenin in mouse aortic smooth muscle cells (MASMCs) (mouse) (UniProt Q02248)

UniProt Q9WU82, sequence (Q9WU82 2-781): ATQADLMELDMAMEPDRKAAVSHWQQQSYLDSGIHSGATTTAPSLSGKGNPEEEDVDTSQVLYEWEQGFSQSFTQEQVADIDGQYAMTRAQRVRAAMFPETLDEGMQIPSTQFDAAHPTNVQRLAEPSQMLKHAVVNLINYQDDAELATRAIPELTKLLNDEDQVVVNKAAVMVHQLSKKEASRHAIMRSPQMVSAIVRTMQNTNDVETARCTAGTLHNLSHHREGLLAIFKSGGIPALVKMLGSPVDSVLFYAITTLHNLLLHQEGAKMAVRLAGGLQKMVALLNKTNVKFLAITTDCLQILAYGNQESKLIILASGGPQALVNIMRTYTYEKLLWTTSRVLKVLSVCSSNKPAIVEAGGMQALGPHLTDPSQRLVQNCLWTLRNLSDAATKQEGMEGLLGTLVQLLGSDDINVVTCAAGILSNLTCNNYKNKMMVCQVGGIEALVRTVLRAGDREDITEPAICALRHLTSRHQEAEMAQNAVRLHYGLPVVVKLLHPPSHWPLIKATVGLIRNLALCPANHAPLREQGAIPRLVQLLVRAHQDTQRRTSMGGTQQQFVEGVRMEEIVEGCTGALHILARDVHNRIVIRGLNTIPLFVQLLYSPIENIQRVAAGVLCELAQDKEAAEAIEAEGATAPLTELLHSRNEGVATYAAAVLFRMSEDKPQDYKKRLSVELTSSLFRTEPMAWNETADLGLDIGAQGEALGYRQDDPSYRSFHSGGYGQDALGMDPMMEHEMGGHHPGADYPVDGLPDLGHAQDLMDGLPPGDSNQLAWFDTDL

| inhibition of β-catenin activation of Topflash (TCF-luciferase reporter) in A7r5 cells [1] | nuclear β-catenin/lamin A/C ratio in fractionated, LiCl-treated A7r5 cells [2] | LiCl-stimulated TCF/β-catenin transcriptional activation (Topflash) in MASMCs after Fat1 knockdown (% higher than control siRNA) [3] | Substance |
| --- | --- | --- | --- |
| 40% | 0.8 | – | IL2R-Fat1IC (from UniProt P01589 22-259) |
| – | – | 30 | endogenous Fat1 in mouse aortic smooth muscle cells (MASMCs) |
| 55% | – | – | FLAG-tagged N-cadherin (receptor) |
